Measurements published in a protein production outcome set (Wang et al. 2014).

Assay: label from the status in PepcDB records

| Sequence | protein production |
| --- | --- |
| MIKVLIFFGIILLGLCISPWIVGNTGYVYIAAGDYQLETSLAFGIIMLIVFYALFQVLEWLVITVINLLLRSRFIPHQWRRRSAKKHTLMGALAIAEEDWPAAERAMIKGADNGELPALNLLAAARAAQHQNKTAERDQYLARAETQPLAANAVATTRTRYLLKQGEFTLARAELDKLAPTSKSKAPVLKLALELYRAQQDWEALKLLLPILKKRQILDDIQLNSLSVETHSALLQTASLKGEDALEQCWQWLSRDERNQSEFLAIYTMGLCRFNRKEQAIKLLSKKLRSSPESALLEVIPQIVTAHDTDIRKQLLKHEITHENNADYQRCLALLYQQTRDMKEAKTCWQNVCRIAPTKDSWLSLARIQEQLGEQGHANQSYRQAVTL | failed |
| MIKVNVMYPYTEGARFDHAYYCDRHMPMVKARLGSACAYYTVEKGLAGSASGAPPAFVAMCAFICDSAENFYAAMYYHGAEILGDIANYTDIAPVLQISEVVVERSDR | not failed |
| MILAVLFANSVGNVLIERFNGVPAEERLHWRSFLVKLGADNLKGVKNEELLVACHKSVYIVYTMLGDVSIFLVGKDEYDELALAETIYIITAAVKDVCGKPPTERVFLDKYGRICLCLDEIVWNGLLENTDKDRIKRLIRLKPPSEV | failed |
| MILCYGDNNIMMDIYKEIKEEMKKVYLSRDCCFVGYSGGKDSSAMLTLLWDAIAELPLEERTNPIHILTSEVGVETPAMTAYISRTLQKIQEKANEQNLPFVVHGVKPLMKESYWYKVIGRGVLPPSGNSRLRWCTDSLKVKPMQRKMKEILIASQTTTAVECFDEYDGVLMLAVRNEESARRRHSIQKHEISNDSLFSRHNDMKNILCFNPVKFLTGDEVWMLLLDRGI | failed |
| MILFDGMYSLGGVILSLLALMGSIYINKKDYEKYPFGKKMIEPLIVIIKSLAIFIMCIYSLTGSIKDLINGGNEVQYGYALIYALISTLGCGIAYFFLKKKGKAINSSLINIESSQWLMDALLSMGVLVGFLIANIIKHTEFIWFNRYLDPLMVIICSSVFIKMPIKSFGDGLKELLEFKADDSITLEIDKLVEGIEREYNFEDTITRVSKTGNDLRIEIDFIYNEESNIKALDEMDSLREKIFNSLSHINYEKWLNVSFTKDKKWAI | failed |
| MILGEIMEVLAFKNQSLIDHVNDMVKYWERIKYRYLKTIKRALEALNIKLDIEKVDEFMKILIKLHDIGKASKIYQRAIINDQEKLMGFRHELVSAYYTYHILLKKFGDKNLAFIGALTVMLHHEPIIMGQIRNLKKKELTAEVVLDKLKKFDGMIEDFEDLIKKLIGYSIGDIIKNDSNKDDIIRFVIEMSVRARHTPNSEKLRFIVGTLLLPLVMCDYKGAESREGKAPKFAEVLEVESYVI | not failed |
| MILINKRAEKQDYQTILAIWEKSVIVTHDFLTAEDRQFYKEQIPLFLDNVELFLWFAGEEVIGFSGTSERELDMLFLDPVATGNGYGSQILGWLIENKRINLVDVNEQNENATRFYLKHGFVVSSRSDLDGFGKPYPILQLQLKERVNGV | not failed |
| MILINLFITFLKIGLLNFGGGNGIAAIINNEIINNKHWITKEEFVNMITISRITPGPIATNIATYVGMKTAGIAGAIIATVALITAPIIIMIIILLILHKIGFLNYCLENLKPIIVALWIITIIILLENTYLKIENNKTELLKTLAIVGINFFILFFYNKISPALVIILSGFFYTLI | failed |
| MILQDARIDVPYTVVSINLPEDSVRHLSNLGLKVGSRLELISKTKSSAIVMLKSSRLAFDDSILSKIDVSESQETVETLPLSELEVGQFAYIDNIFAVNEAKRRLMDMGLTRHTKIYLRKVAPLGDPIEISLRGYELTLRKSEAQMISVVKIDNQEEKLEHHHHHH | not failed |
| MILSQQKYNYLAKVSDSNGVISALAFDQRGALKCLMAQYQMKEPTVAQMEELKVLVSEELTPYASSILLDPEYGLPAAQARDREAGLLLAYEKTGYDANTTSRLPDCLVDWSIKRLKEAGADAVKFLLYYDVDGDPQVNVQKQAYIERIGSECQAEDIPFFLEILTYDETISNNSSVEFAKVKVHKVNDAMKVFSAERFGIDVLKVEVPVNMVYVEGFAEGEVVYSKEEAAQAFREQEASTDLPYIYLSAGVSAELFQETLVFAHKAGAKFNGVLCGRATWAGSVQVYMEEGKEAARQWLRTSGLQNINELNKVLKTTASPWTEKVSVG | not failed |
| MIMINKTKRLMVSRQVKIPRKTYFWGPTPNPGMHPKDQSVTLLSIIRDYLKLSDKEREAARILANGLVKVDGKTVREKKFAVGFMDVIEINGESYRVVYNDQGALVLMKETKERASMKLLKVRSKVIAPGNRIQLGTHDGRTFITDDKSKKVGDVWAVSVPDMKISEIIKMQPGNKAYITAGSHVNQTGTISKIEAKEGSSANLVHFQEGFSTIKDHVFMIGSSKFSFVLSPEEVIPLEHHHHHH | not failed |
| MIMMENDRISDFFIVAFIFSWVLWIPVAMVSAGFSFPQPLQAFLESPYNPAAFGPTLAAVLLSYRYGGRDELLALLRKGVNYDFHRIWWPVILLFFPVLTAVALYLGVLWGDPQPYLYWTSQPLMVIMVFIYIFFLGGPLQEEFGWRGYALPRLQRRYSPIYAALIIGFIWGLWHIPLFFIGGSIQSQVPFWSFMILIISASVIYTWVYNSTGSILATMIIHTTGNLSYFLFPVQGTLAGGIFLMILNVAAALAVMLFAGSELKTDFGGQGH | failed |
| MIMNKIKKILKFCTLKKYDTSSALGREQERYRIISLSVISSLISKILSLLSLILTVSLTLPYLGQERFGVWMTITSLGAALTFLDLGIGNALTNRIAHSFACGKNLKMSRQISGGLTLLAGLSFVITAICYITSGMIDWQLVIKGINENVYAELQHSIKVFVIIFGLGIYSNGVQKVYMGIQKAYISNIVNAIFILLSIITLVISSKLHAGLPVLIVSTLGIQYISGIYLTINLIIKRLIKFTKVNIHAKREAPYLILNGFFFFILQLGTLATWSGDNFIISITLGVTYVAVFSITQRLFQISTVPLTIYNIPLWAAYADAHARNDTQFIKKTLRTSLKIVGISSFLLAFILVVFGSEVVNIWTEGKIQVPRTFIIAYALWSVIDAFSNTFASFLNGLNIVKQQMLAVVTLILIAIPAKYIIVSHFGLTVMLYCFIFIYIVNYFIWYKCSFKKHIDRQLNIRG | failed |
| MIMRKFASRVKDIQLSEIRKIFEVADEDTINLGIGEPDFSVPDHVREAVKDAVDEGLTHYTSNMGMEELREAIADKLKSENRVHAEPESIIVTVGASEAIFMCTQALLDIGDHALIPDPGFLSYDACVRLSGAVSIPVPLSMDEGFSMSPERVESLITQDTRVIIMNSPSNPTGSVMGKDDVKGIAEIAEDNDLIIISDEIYEKIIYDGKHYSPAQFTDNALIVNGFSKTYAMTGLRIGYVAGCEDIIEELLKVHQYNTACAPSISQYAALAAIRGPQNCVKDMVDEFRRRRDLMFRSLTDMGLECVLPGGAFYMFPYAGDSEEFTKLSLEAGVAVVPGSAFGNEGKGYIRMSYATSYELIEEAMERLKTVCGV | failed |
| MINARGETMARFTVVIPYYQKQHGVLGRALASVFAQTYQDFDLVIVDDESPYPIDQELAEISQEQKDRIVVIKQANAGPGGARNTGLDHVPDGTDYVAFLDSDDMWTPDHLRNAAFALNTYGGECYWASMQASDEFYYHFAISELEKNEGAARLSEKPLVIELPDLASVMLRNWSFLHLSCMVIGRPLFEKIRFDPALRLAAEDVLFFCDSILASKRTLLCDDAGAMRGMGVNIFHSIDNTSPEFLRQQFNTWVALDTLEGRFSRRPADVASIASYKNTARKQALWSQAGNLKRRRAPQFGLLFKWAMRDPALLRAAFELGAGKIVRSRLEHHHHHH | failed |
| MINEQRLLNTFLELVQIDSETGNESTIQPILKEKFIALGLDVKEDEAAKHPKLGANNLVCTMNSTIEEGEVPKLYLTSHMDTVVPAINVKPIVKDDGYIYSDGTTILGADDKAGLAAMLEVLQVIKEQQIPHGQIQFVITVGEESGLIGAKELNSELLDADFGYAIDASADVGTTVVGAPTQMLISAKIIGKTAHASTPKEGVSAINIAAKAISRMKLGQVDEITTANIGKFHGGSATNIVADEVILEAEARSHDPERIKTQVKHMTDVFETTASELGGKAEVTVEQSYPGFKINDNEAVVKIAQESARNLGLSANTIISGGGSDGSIINTFGIPSVILGVGYEKIHTTNERMPIKSLNLLASQVLEIIKIVARQSK | not failed |
